Values belong to the binder of their own block, whether it stands above or below them. Numbered stars: 1 amine (or outer) side, 2 acyl side, 3 side chain; on linkers, the order of the positions; unused ones are H or OH. Bridge positions count the residues as written; N and C are the ends. Side chains are listed from the residue outwards. Ends that are not written are not given here. * marks the point of attachment. C20 diacid = O=C(O)CCCCCCCCCCCCCCCCCCC(=O)*; γGlu = O=C(O)[C@H](CCC(=O)[*:2])N[*:1]; AEEA = NCCOCCOCC(=O)O
Assays:
[1] = target: T1, rat calcitonin receptor (rat, UniProt P32214 25-516); assay: IC50 on rat calcitonin receptor divided by IC50 on rat amylin receptor (SPA competition)
T1 construct: whole, on cells; membranes of transiently transfected BHK tk'ts 13 cells (Assay VIII); also called rCTR; rat calcitonin (a) receptor
T1 sequence (looked up): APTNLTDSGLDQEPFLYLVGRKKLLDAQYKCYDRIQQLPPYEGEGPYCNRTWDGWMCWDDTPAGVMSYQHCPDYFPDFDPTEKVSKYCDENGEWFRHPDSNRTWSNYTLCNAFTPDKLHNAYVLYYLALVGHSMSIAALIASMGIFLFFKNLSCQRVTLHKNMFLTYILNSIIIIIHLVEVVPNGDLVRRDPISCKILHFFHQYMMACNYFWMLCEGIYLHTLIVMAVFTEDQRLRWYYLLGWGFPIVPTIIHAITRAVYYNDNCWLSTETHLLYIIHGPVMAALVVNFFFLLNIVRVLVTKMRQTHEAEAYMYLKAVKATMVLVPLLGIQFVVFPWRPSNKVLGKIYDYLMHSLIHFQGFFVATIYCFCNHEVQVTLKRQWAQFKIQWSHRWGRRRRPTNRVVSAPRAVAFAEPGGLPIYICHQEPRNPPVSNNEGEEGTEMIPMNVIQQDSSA

[2] = target: T2, human calcitonin receptor (human, UniProt P30988 25-474); assay: IC50 on human calcitonin receptor divided by IC50 on human amylin receptor (SPA competition)
T2 construct: whole, on cells; membranes of stably transfected BHK cells (Assay VII); also called hCTR; hCT
T2 sequence (looked up): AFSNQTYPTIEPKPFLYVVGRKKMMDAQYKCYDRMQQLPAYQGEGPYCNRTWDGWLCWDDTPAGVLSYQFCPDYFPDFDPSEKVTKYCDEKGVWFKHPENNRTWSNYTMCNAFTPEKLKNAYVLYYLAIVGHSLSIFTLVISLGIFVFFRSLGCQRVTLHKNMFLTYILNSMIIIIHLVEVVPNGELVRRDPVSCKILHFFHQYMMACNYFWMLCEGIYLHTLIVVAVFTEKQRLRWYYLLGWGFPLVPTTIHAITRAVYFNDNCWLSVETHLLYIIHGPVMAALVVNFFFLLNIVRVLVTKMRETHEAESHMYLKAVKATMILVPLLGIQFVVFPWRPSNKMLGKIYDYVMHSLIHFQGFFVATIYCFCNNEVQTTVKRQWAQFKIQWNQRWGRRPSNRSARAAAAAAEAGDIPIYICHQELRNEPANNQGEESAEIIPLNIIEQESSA
Method: The resulting pellet was resuspended, homogenized and centrifuged (20.000 rpm, 15 min) in a buffer containing 20 mM Na-HEPES and 0.1 mM EDTA (pH 7.4, buffer 2). The resulting pellet was resuspended in buffer 2 and protein concentration was measured (BCA protein Assay, Pierce). The homogenate was kept cold during the whole procedure. The membranes were kept at −80° C. until use. The assay was performed in a 384 well Optiplate (PerkinElmer) in a total volume of 40 ul. Membranes were mixed with SPA beads. Final concentration of membranes 35 ng/μL final and SPA beads was 0.05 mg/well. Test-compounds were dissolved in DMSO and further diluted in assay buffer (50 mM Hepes, pH 7.4, 1 mM CaCl2, 5 mM MgCl₂, 0.1% OA and 0.02% Tween20). […] The final mixture was incubated with shaking at 400 rpm for 120 min at 25° C. prior to centrifugation (1500 rpm, 10 min). Samples were analyzed on TopCounter™ (Packard). The IC₅₀ was calculated using (one site binding competition analysis) GraphPad Prism5 as a measure of receptor affinity.
Membranes were prepared in the following way; the cells were rinsed with PBS and incubated with Versene for approximately 5 min before harvesting. The cells were flushed with PBS and the cell-suspension was centrifuged for 5 min at 1000 rpm. Cells were homogenized (Ultrathurrax) in a buffer containing 20 mM Na-HEPES and 10 mM EDTA (pH 7.4) and centrifuged at 20.000 rpm for 15 min. The resulting pellet was resuspended, homogenized and centrifuged (20.000 rpm, 15 min) in a buffer containing 20 mM Na-HEPES and 0.1 mM EDTA (pH 7.4, buffer 2). The resulting pellet was resuspended in buffer 2 and protein concentration was measured (BCA protein Assay, Pierce). The homogenate was kept cold during the whole procedure. The membranes were kept at −80° C. until use. Assay was performed in a 384 well Optiplate (PerkinElmer) in a total volume of 40 ul. Membranes were mixed with SPA beads.

[3] = target: T1, rat calcitonin receptor; assay: SPA competition with 125I-calcitonin, membranes of BHK cells with rat calcitonin receptor (Assay VIII)
[4] = target: T3, rat amylin receptor (rat calcitonin receptor + rat RAMP 3) (rat, UniProt P32214 25-516; Q9JJ73 23-147); assay: SPA competition with 125I-rat amylin, membranes of BHK cells with rat calcitonin receptor + rat RAMP3 (Assay VI)
T3 construct: whole, on cells; membranes of transiently transfected BHK tk'ts 13 cells (Assay VI); also called rAmylin-R; rat amylin 3(a) receptor
T3 sequence (looked up) 1: T1 sequence (looked up)
T3 sequence (looked up) 2: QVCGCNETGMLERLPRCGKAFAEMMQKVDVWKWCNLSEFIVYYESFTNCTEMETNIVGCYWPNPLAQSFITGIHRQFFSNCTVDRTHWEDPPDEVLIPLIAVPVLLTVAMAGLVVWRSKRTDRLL

B1: N^α1-[(4S)-4-carboxy-4-(19-carboxynonadecanoylamino)butanoyl]-[Arg17,Pro21,Pro27,Pro34,Glu35]-h-amylin (peptide)
peptide: {C20 diacid-γGlu}-KCNTATCATQRLANFLRHSSPNFGAIPSSTNVGPETY-NH2
modifications: disulfide 2-7 (inferred)
notes: analogue of human amylin; also called compound 29
Ratio rCT/rAmylin binding [1]: 67 | Ratio hCT/hAmylin binding [2]: 13.9 | IC50 [3]: 21.6 nM | IC50 [4]: 0.322 nM

B3: N^ε1-[2-[2-[2-[[(4S)-4-carboxy-4-(19-carboxynonadecanoylamino)butanoyl]amino]ethoxy]ethoxy]acetyl]-[Arg17,Pro21,Pro27,Pro34]-h-amylin (peptide)
peptide: K([AEEA-γGlu-C20 diacid])CNTATCATQRLANFLRHSSPNFGAIPSSTNVGPNTY-NH2
modifications: disulfide 2-7 (inferred)
notes: analogue of human amylin; also called compound 50
Ratio rCT/rAmylin binding [1]: 81.7 | Ratio hCT/hAmylin binding [2]: 36 | IC50 [3]: 5.63 nM | IC50 [4]: 0.069 nM

B7: N^ε1-[(4S)-4-carboxy-4-(19-carboxynonadecanoylamino)butanoyl]-[Arg17,Pro21,Pro27,Lys35]-h-amylin (peptide)
peptide: K([γGlu-C20 diacid])CNTATCATQRLANFLRHSSPNFGAIPSSTNVGSKTY-NH2
modifications: disulfide 2-7 (inferred)
notes: analogue of human amylin; also called compound 35
Ratio rCT/rAmylin binding [1]: 65.1 | Ratio hCT/hAmylin binding [2]: 50.3 | IC50 [3]: 61.7 nM | IC50 [4]: 0.948 nM

B8: N^ε1-[2-[2-[2-[[2-[2-[2-[[(4S)-4-carboxy-4-(19-carboxynonadecanoylamino)butanoyl]amino]ethoxy]ethoxy]acetyl]amino]ethoxy]ethoxy]acetyl]-[Arg17,Pro21,Pro27,Glu35 … (peptide)
peptide: K([AEEA-AEEA-γGlu-C20 diacid])CNTATCATQRLANFLRHSSPNFGAIPSSTNVGSETY-NH2
modifications: disulfide 2-7 (inferred)
notes: analogue of human amylin; also called compound 25
Ratio rCT/rAmylin binding [1]: 37.7 | Ratio hCT/hAmylin binding [2]: 56.5 | IC50 [3]: 131 nM | IC50 [4]: 3.48 nM

Further lines, results first:

Ratio rCT/rAmylin binding [1]: 42 | Ratio hCT/hAmylin binding [2]: 16.5 | IC50 [3]: 47.2 nM | IC50 [4]: 1.12 nM
B2: N^α1-[(4S)-4-carboxy-4-(19-carboxynonadecanoylamino)butanoyl]-[Glu14,Arg17,Pro21,Pro26]-h-amylin (peptide)
peptide: {C20 diacid-γGlu}-KCNTATCATQRLAEFLRHSSPNFGAPLSSTNVGSNTY-NH2
modifications: disulfide 2-7 (inferred)
notes: analogue of human amylin; also called compound 7

Ratio rCT/rAmylin binding [1]: 45.6 | Ratio hCT/hAmylin binding [2]: 19.1 | IC50 [3]: 55.2 nM | IC50 [4]: 1.21 nM
B4: N^α1-[(4S)-4-carboxy-4-(19-carboxynonadecanoylamino)butanoyl]-[Glu14,Arg17,Pro21,Pro27,Arg35]-h-amylin (peptide)
peptide: {C20 diacid-γGlu}-KCNTATCATQRLAEFLRHSSPNFGAIPSSTNVGSRTY-NH2
modifications: disulfide 2-7 (inferred)
notes: analogue of human amylin; also called compound 16

Ratio rCT/rAmylin binding [1]: 35.9 | Ratio hCT/hAmylin binding [2]: 12.5 | IC50 [3]: 97.2 nM | IC50 [4]: 2.71 nM
B5: N^α1-[(4S)-4-carboxy-4-(19-carboxynonadecanoylamino)butanoyl]-[Glu14,Arg17,Pro21,Pro27,His34]-h-amylin (peptide)
peptide: {C20 diacid-γGlu}-KCNTATCATQRLAEFLRHSSPNFGAIPSSTNVGHNTY-NH2
modifications: disulfide 2-7 (inferred)
notes: analogue of human amylin; also called compound 17

Ratio rCT/rAmylin binding [1]: 28.5 | Ratio hCT/hAmylin binding [2]: 12.3 | IC50 [3]: 62.5 nM | IC50 [4]: 2.19 nM
B6: N^α1N^α1-[(4S)-4-carboxy-4-(19-carboxynonadecanoylamino)butanoyl]-[Glu14,Arg17,Pro21,Pro27,Glu35]-h-amylin (peptide)
peptide: {C20 diacid-γGlu}-KCNTATCATQRLAEFLRHSSPNFGAIPSSTNVGSETY-NH2
modifications: disulfide 2-7 (inferred)
notes: analogue of human amylin; the name is printed with N^α1 twice; also called compound 22

— US20140087995A1 (published 2014)
